According to patent EP4778937A1:

Tests used:
[1] = target: CD112 on MDA-MB-231-Luc-GFP and MDA-MB-231-CD155(-)-Luc-GFP cells (human) (UniProt Q92692); test: flow cytometry of MDA-MB-231-Luc-GFP cells stained with the antibody, control incubated with PBS
[2] = target: T1, CD155 (labelled CD155 molecule / CD155 antigen of Example 2) (UniProt P15151); test: flow cytometry, labelled CD155 on CAR-CHO cells; MFI of CD155-positive cells / MFI of TIGIT-positive cells
T1 sequence (labelled for flow cytometry, label not stated, looked up): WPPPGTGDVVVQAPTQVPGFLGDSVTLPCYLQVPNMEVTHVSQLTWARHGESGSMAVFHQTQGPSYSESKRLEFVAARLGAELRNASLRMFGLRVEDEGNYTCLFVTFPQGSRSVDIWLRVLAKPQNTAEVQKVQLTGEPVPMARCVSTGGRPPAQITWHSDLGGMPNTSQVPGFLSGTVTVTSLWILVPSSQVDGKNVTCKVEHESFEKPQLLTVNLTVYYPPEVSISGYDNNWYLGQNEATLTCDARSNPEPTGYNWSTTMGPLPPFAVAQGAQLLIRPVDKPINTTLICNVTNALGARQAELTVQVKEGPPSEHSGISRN

[3] = target: CD112 (labelled CD112 molecule / CD112 antigen of Example 2) (UniProt Q92692); test: flow cytometry, labelled CD112 on CAR-CHO cells; MFI of CD112-positive cells / MFI of TIGIT-positive cells

CD112 (Nectin2) Monoclonal Antibody (R2.525) PE
MFI, fold over the control group [1]: 4 fold

B1: CAR6 (TIGIT mutant peptide Mut6-CD28TM-28Z) (receptor)
chain: MMTGTIETTGNISAEKGGSIILQCHLSSTTAQVTQVNWEQQDQLLAIWNADLGWHISPSFKDRVAPGPGLGLTLQSLTVNDTGEYFCIYHTYPDGTYTGRIFLEVLESSVAEHGARFQIPFWVLVVVGGVLACYSLLVTVAFIIFWVRSKRSRGGHSDYMNMTPRRPGPTRKHYQPYAPPRDFAAYRSRVKFSRSADAPAYKQGQNQLYNELNLGRREEYDVLDKRRGRDPEMGGKPRRKNPQEGLYNELQKDKMAEAYSEIGMKGERRRGKGHDGLYQGLSTATKDTYDALHMQALPPR
relative MFI of CD155 (CD155/TIGIT) [2]: 1.34 | relative MFI of CD112 (CD112/TIGIT) [3]: 0.13

B2: CAR30 (wild-type TIGIT polypeptide-CD28TM-28Z) (receptor)
chain: MMTGTIETTGNISAEKGGSIILQCHLSSTTAQVTQVNWEQQDQLLAICNADLGWHISPSFKDRVAPGPGLGLTLQSLTVNDTGEYFCIYHTYPDGTYTGRIFLEVLESSVAEHGARFQIPFWVLVVVGGVLACYSLLVTVAFIIFWVRSKRSRGGHSDYMNMTPRRPGPTRKHYQPYAPPRDFAAYRSRVKFSRSADAPAYKQGQNQLYNELNLGRREEYDVLDKRRGRDPEMGGKPRRKNPQEGLYNELQKDKMAEAYSEIGMKGERRRGKGHDGLYQGLSTATKDTYDALHMQALPPR
relative MFI of CD155 (CD155/TIGIT) [2]: 1.03 | relative MFI of CD112 (CD112/TIGIT) [3]: 0.16
